The values that follow are results of earlier work, collected in paper PMC3022668.

The target in the data set is streptavidin (Streptomyces avidinii) (UniProt P22629).

pKd: −log10 of the molar value.

streptavidin (Streptomyces avidinii), sequence (P22629 25-183): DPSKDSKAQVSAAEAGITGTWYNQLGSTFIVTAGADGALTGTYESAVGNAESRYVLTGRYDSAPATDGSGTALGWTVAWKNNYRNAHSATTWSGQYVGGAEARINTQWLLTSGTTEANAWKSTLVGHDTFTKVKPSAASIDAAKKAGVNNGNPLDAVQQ

On to streptavidin-binding peptide (SBP), for which the pKd is 8.60.
